Results on 32 molecules are retold here after US20240279318A1 (NANJING LEGEND BIOTECH, published 2024).

B1: AS170036 VL1VH1 HF101N (scFv)
scFv: QSALTQPRSVSGSPGQSVTISCAGTSSDVGSENYVSWYQQHPGKAPKLMIYQVNKRASGVPDRFSGSKSGNTASLTISGLQAEDEADYYCASYRSSDHNIVFGGGTKLTVLGGGGSGGGGSGGGGSEVQLVESGGGLVQPGGSLRLSCAASGFTFSSYAMSWVRQAPGKGLEWVSTINSGTGSPYYADSVKGRFTISRDNSKNTLYLQMNSLRAEDTAVYYCAKNFNDGSWFLGPPAMDYWGQGTLVTVSSHHHHHH
B2: AS170036 VL1VH1 HG56L (scFv)
scFv: B1 scFv with G182L, N227F
B3: AS170036 VL1VH1 HG108L (scFv)
scFv: B1 scFv with N227F, G234L
B4: AS170036 VL1VH1 HF106W (scFv)
scFv: B1 scFv with N227F, F232W
B5: AS170036 VL1VH1 HG56V (scFv)
scFv: B1 scFv with G182V, N227F
B6: AS170036 VL1VH1 HG108F (scFv)
scFv: B1 scFv with N227F, G234F
B7: AS170036 VL1VH1 HG56T (scFv)
scFv: B1 scFv with G182T, N227F
B8: AS170036 VL1VH1 HG108Q (scFv)
scFv: B1 scFv with N227F, G234Q
B9: AS170036 VL1VH1 HG56I (scFv)
scFv: B1 scFv with G182I, N227F
B10: AS170036 VL1VH1 HL107M (scFv)
scFv: B1 scFv with N227F, L233M
B11: AS170036 VL1VH1 HG108V (scFv)
scFv: B1 scFv with N227F, G234V
B12: AS170036 VL1VH1 HG56Q (scFv)
scFv: B1 scFv with G182Q, N227F
B13: AS170036 VL1VH1 HL107A (scFv)
scFv: B1 scFv with N227F, L233A
B14: AS170036 VL1VH1 HF101W (scFv)
scFv: B1 scFv with N227W
B15: AS170036 VL1VH1 HG56P (scFv)
scFv: B1 scFv with G182P, N227F
B16: AS170036 VL1VH1 HG108T (scFv)
scFv: B1 scFv with N227F, G234T
B17: AS170036 VL1VH1 HG56H (scFv)
scFv: B1 scFv with G182H, N227F
B18: AS170036 VL1VH1 HG108W (scFv)
scFv: B1 scFv with N227F, G234W
B19: AS170036 VL1VH1 HG56W (scFv)
scFv: B1 scFv with G182W, N227F
B20: AS170036 VL1VH1 HL107G (scFv)
scFv: B1 scFv with N227F, L233G
B21: AS170036 VL1VH1 HF101Y (scFv)
scFv: B1 scFv with N227Y
B22: AS170036 VL1VH1 HG108Y (scFv)
scFv: B1 scFv with N227F, G234Y
B23: AS170036 VL1VH1 HG56R (scFv)
scFv: B1 scFv with G182R, N227F
B24: AS170036 VL1VH1 HG56K (scFv)
scFv: B1 scFv with G182K, N227F
B25: AS170036 VL1VH1 HG56S (scFv)
scFv: B1 scFv with G182S, N227F
B26: AS170036 VL1VH1 HG108R (scFv)
scFv: B1 scFv with N227F, G234R
B27: AS170036 VL1VH1 HG108I (scFv)
scFv: B1 scFv with N227F, G234I
B28: AS170036 VL1VH1 HG56E (scFv)
scFv: B1 scFv with G182E, N227F
B29: AS170036 VL1VH1 HG56M (scFv)
scFv: B1 scFv with G182M, N227F
B30: AS170036 VL1VH1 HL107I (scFv)
scFv: B1 scFv with N227F, L233I
B31: AS170036 VL1VH1 HG56D (scFv)
scFv: B1 scFv with G182D, N227F
B32: AS170036 VL1VH1 HG108H (scFv)
scFv: B1 scFv with N227F, G234H

Where a chain is given by its changes, count along the chain named.
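For Kd in this document: Peptide–MHC complex flowed at several concentrations over sensorchip-captured scFv, Kd derived from on- and off-rates obtained from the association and dissociation curves.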

In the first assay the target is T1, AFP158/HLA-A*02:01 complex (human).
T1 construct: biotinylated on the BSP by BirA for ELISA and panning; also called biotinylated AFP158/HLA-A*02:01 complex; Bio-AFP158
Put plainly: SPR, crude scFv captured. (In general: In SPR one partner is held on a chip, and binding of the other changes the refractive index at the surface.)
Description: (§1) The experiment was carried out as follows. The crude scFv protein were captured onto the sensorchip. Different concentrations (320, 160, 40 nM) of AFP158/HLA-A*02:01 complex flowed over the sensorchip surface, and were allowed to bind the antibody fragment for 100 s followed by injection of the running buffer to allow dissociation of the complex. On-rate (kd) and off-rate (kd) were calculated based on association and dissociation curve, and were used to estimate the equilibrium dissociation constant (KD).
For orientation: Kd means the equilibrium constant for the complex coming apart. For B1, the equilibrium dissociation constant (Kd) worked out at 3700 nM.
In the case of B2, the Kd stood at 290 nM. This Kd is about 13-fold lower than that of the molecule before.
For the molecule B3, the Kd turned out to be 200 nM.
The molecule B4 returned a Kd of 630 nM. Against the preceding molecule, the Kd is about 3.1-fold higher.
In the case of B5, binding was characterised by a dissociation constant (Kd) of 630 nM. That is a sub-micromolar value.
Still for that read-out and setting: with B6 the figure was 810 nM; with B7, 340 nM; with B8, 200 nM.
For the molecule B9, the affinity, expressed as Kd, was 1100 nM.
Consider B10, for which the Kd worked out at 370 nM.
For B11, the Kd was 370 nM. This counts as sub-micromolar.
In the case of B12, binding was characterised by a dissociation constant (Kd) of 240 nM. Compared with the last molecule, the Kd is about 1.5-fold lower.
In the case of B13, the affinity, expressed as Kd, was 3300 nM.
B14 showed a Kd of 300 nM.
For the molecule B15, the affinity, expressed as Kd, was 1600 nM.
On to B16, for which binding was put at a Kd of 530 nM.
On to B17, for which the Kd is 150 nM.
Same read-out and setting: the figure for B18 is 2300 nM.
In turn, B19 displayed a Kd of 130 nM.
On the same count and under the same terms, with B20 the figure was 4400 nM.
In turn, B21 yielded a Kd of 210 nM.
With B22, the Kd came out at 1100 nM.
Molecule B23 registered a Kd of 300 nM.
On the same count and under the same terms, with B24 the figure was 350 nM; with B25, 160 nM; with B26, 1500 nM.
The molecule B27 showed a Kd of 1000 nM. Compared with the last molecule, the Kd is about 1.5-fold lower.
As to B28, the Kd came out at 240 nM.
With B29, the Kd came out at 130 nM.
Molecule B30 gave a Kd of 240 nM. Compared with the last molecule, the Kd is about 1.8-fold higher.
Turning to B31, binding was put at a Kd of 230 nM.
In turn, B32 showed a Kd of 660 nM.

The next assay concerns the target T1, AFP158/HLA-A*02:01 complex. Kind of assay: SPR; vs AS170036 VL1VH1.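 Also: crude scFv captured on sensor chip, peptide–HLA complex flowed over at several concentrations, KD estimated from association and dissociation kinetic rates.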
Description: as §1
Consider B1, for which the Affinity increase was determined as 0.1 fold.
B2 registered an Affinity increase of 0.8 fold.
Same read-out and setting: with B3 the figure was 1.4 fold; with B4, 0.4 fold; with B5, 0.4 fold.
Take B6: the Affinity increase was 0.3 fold.
The molecule B7 displayed an Affinity increase of 0.7 fold.
As to B8, the Affinity increase came to 1.4 fold.
The same measure, in the same setting: with B9 the figure was 0.2 fold; with B10, 0.7 fold.
B11 had an Affinity increase of 0.7 fold.
The same measure, in the same setting: with B12 the figure was 1 fold; with B13, 0.1 fold.
The molecule B14 gave an Affinity increase of 0.8 fold.
On the same count and under the same terms, the figure for B15 is 0.1 fold; for B16 it is 0.5 fold; for B17 it is 1.5 fold.
B18 registered an Affinity increase of 0.1 fold.
In the case of B19, the Affinity increase was 1.7 fold.
For B20, the Affinity increase came to 0.1 fold.
As for B21, the Affinity increase was found to be 1.1 fold.
Same read-out and setting: with B22 the figure was 0.2 fold.
The same measure, in the same setting: with B23 the figure was 0.8 fold.
Turning to B24, the Affinity increase came out at 0.7 fold.
Molecule B25 gave an Affinity increase of 1.5 fold.
Take B26: the Affinity increase turned out to be 0.2 fold.
B27 registered an Affinity increase of 0.2 fold.
B28 returned an Affinity increase of 1 fold.
On the same count and under the same terms, with B29 the figure was 1.7 fold; with B30, 1.1 fold.
B31 returned an Affinity increase of 1 fold.
On to B32, for which the Affinity increase was 0.4 fold.
